Measured values published in US20160031998A1 (CSL, published 2016).
Numbering of substitutions follows the chain as printed.

T1: soluble hG-CSFR: amino acids 25-335 of Homo sapiens G-CSFR with mutations C78A, C163S and C228S and a … (Homo sapiens, UniProt Q99062 25-335)
T1 chain: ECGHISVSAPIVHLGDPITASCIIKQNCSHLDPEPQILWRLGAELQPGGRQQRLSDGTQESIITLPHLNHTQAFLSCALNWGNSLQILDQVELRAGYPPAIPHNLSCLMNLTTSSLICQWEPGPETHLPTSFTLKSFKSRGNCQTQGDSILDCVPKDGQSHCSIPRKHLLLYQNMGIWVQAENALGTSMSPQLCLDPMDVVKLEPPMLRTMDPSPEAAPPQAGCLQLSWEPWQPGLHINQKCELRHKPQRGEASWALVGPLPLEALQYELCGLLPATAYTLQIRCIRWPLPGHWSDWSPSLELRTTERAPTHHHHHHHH

T2: human G-CSFR expressed on cells (Homo sapiens, UniProt Q99062 25-836)
T2 sequence: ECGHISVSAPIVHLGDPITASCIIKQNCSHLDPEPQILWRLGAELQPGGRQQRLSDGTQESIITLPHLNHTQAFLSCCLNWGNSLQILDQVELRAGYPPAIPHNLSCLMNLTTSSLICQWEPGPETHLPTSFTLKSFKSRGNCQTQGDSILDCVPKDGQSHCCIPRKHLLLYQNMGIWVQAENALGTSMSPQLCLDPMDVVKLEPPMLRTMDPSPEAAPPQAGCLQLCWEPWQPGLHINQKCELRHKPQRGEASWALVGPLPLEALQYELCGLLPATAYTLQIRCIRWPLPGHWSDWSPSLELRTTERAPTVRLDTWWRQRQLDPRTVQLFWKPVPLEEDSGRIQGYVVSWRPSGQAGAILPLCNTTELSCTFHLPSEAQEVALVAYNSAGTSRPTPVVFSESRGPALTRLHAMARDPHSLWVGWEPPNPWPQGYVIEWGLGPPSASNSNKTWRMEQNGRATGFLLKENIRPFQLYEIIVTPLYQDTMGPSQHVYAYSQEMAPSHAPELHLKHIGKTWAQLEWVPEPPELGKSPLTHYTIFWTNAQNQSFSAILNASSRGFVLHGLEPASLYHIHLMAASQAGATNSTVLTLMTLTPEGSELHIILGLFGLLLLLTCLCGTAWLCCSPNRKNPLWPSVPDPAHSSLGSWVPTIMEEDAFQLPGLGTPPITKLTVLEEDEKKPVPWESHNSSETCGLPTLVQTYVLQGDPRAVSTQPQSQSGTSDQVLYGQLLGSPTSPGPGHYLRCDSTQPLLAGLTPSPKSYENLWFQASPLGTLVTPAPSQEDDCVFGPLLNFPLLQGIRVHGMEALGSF

B1: C1.2G-44 (antibody, human IgG4, V domains shown)
VH: EVQLLESGGGLVQPGGSLRLSCAASGFTFSLYWMGWVRQAPGKGLEWVSSISSSGGVTPYADSVKGRFTISRDNSKNTLYLQMNSLRAEDTAVYYCAKLGELGWFDPWGQGTLVTVSS
VL: DIQMTQSPSSLSASVGDRVTITCRASQGISSYLNWYQQKPGKAPKLLIYYASNLQNGVPSRFSGSGSGTDFTLTISSLQPEDFATYYCQQSYSYPQKFGGGTKVEIK
notes: HCDR3 wt (VH of C1.2G); also called antibody 44
B2: C1.2G-999 (antibody, human IgG4, V domains shown)
VH: B1 VH with W104M, D106H, P107K
VL: B1 VL with Y92W, S93E, P95A, Q96M, K97F
notes: also called antibody 999
B3: C1.2G-984 (antibody, human IgG4, V domains shown)
VH: B1 VH with W104M, F105M, D106Q, P107S
VL: B1 VL with Y92I, S93E, Q96A, K97H
notes: also called antibody 984
B4: C1.2G-1002 (antibody, human IgG4, V domains shown)
VH: B1 VH with W104M, F105Y, D106M, P107N
VL: B1 VL with Y92W, S93T, P95G, K97T
notes: also called antibody 1002
B5: C1.2G-986 (antibody, human IgG4, V domains shown)
VH: B1 VH with W104F, D106Q, P107E
VL: B1 VL with S93A, K97Q
notes: also called antibody 986
B6: C1.2G-969 (antibody, human IgG4, V domains shown)
VH: B1 VH with W104Q, F105Y, D106Q, P107F
VL: B1 VL with Y92F, S93Q, P95A, K97H
notes: also called antibody 969
B7: C1.2G-975 (antibody, human IgG4, V domains shown)
VH: B1 VH with W104Q, F105S, D106M, P107L
VL: B1 VL with Y92W, S93Q, Y94I, P95K, Q96L
notes: also called antibody 975
B8: C1.2G-994 (antibody, human IgG4, V domains shown)
VH: B1 VH with W104Q, D106M, P107D
VL: B1 VL with Y92L, S93E, K97M
notes: also called antibody 994
B9: C1.2G-987 (antibody, human IgG4, V domains shown)
VH: B1 VH with W104Q, F105S, D106S, P107A
VL: B1 VL with Y92I, S93Q, K97M
notes: also called antibody 987
B10: C1.2G-989 (antibody, human IgG4, V domains shown)
VH: B1 VH with W104Q, F105Y, D106M, P107F
VL: B1 VL with Y92F, S93Y, Q96F, K97Y
notes: also called antibody 989
B11: C1.2G-973 (antibody, human IgG4, V domains shown)
VH: B1 VH with W104Q, F105M, D106V, P107Y
VL: B1 VL with Y92F, S93K, Q96M, K97T
notes: also called antibody 973
B12: C1.2G-43 (antibody, human IgG4, V domains shown)
VH: B1 VH with W104Q, D106M, P107R
VL: B1 VL with Y92I, S93G, Q96G, K97S
notes: also called antibody 43
B13: C1.2G-1003 (antibody, human IgG4, V domains shown)
VH: B1 VH with W104S, F105G, D106S, P107T
VL: B1 VL with Y92W, S93H, Q96L, K97T
notes: also called antibody 1003
B14: C1.2G-977 (antibody, human IgG4, V domains shown)
VH: B1 VH with W104E, F105I, D106R, P107E
VL: B1 VL with Y92W, S93V, P95H, Q96L, K97P
notes: also called antibody 977
B15: C1.2G-967 (antibody, human IgG4, V domains shown)
VH: B1 VH with W104M, F105Y, P107L
VL: B1 VL with Y92W, S93A, P95G, Q96L, K97S
notes: also called antibody 967
B16: C1.2G-54 (antibody, human IgG4, V domains shown)
VH: B1 VH with W104M, D106L, P107E
VL: B1 VL with Y92M, S93W, Y94M, Q96M, K97G
notes: also called antibody 54
B17: C1.2G-1000 (antibody, human IgG4, V domains shown)
VH: B1 VH with W104Q, F105M, D106M, P107Y
VL: B1 VL with Y92W, S93M, P95A, Q96H, K97M
notes: also called antibody 1000
B18: C1.2G-996 (antibody, human IgG4, V domains shown)
VH: B1 VH with W104Q, F105Y, D106M, P107G
VL: B1 VL with Y92M, S93W, Y94M, Q96I, K97F
notes: also called antibody 996
B19: C1.2G-877 (antibody, human IgG4, V domains shown)
VH: B1 VH
VL: B1 VL with Y92F, S93R, Q96F, K97Y
notes: HCDR3 wt (VH of C1.2G); also called antibody 877
B20: C1.2G-83 (antibody, human IgG4, V domains shown)
VH: B1 VH
VL: B1 VL with Y92W, S93M, P95A, Q96L, K97F
notes: HCDR3 wt (VH of C1.2G); also called antibody 83
B21: C1.2G-77 (antibody, human IgG4, V domains shown)
VH: B1 VH
VL: B1 VL with Q89E, S91G, Y92W, S93N, Q96L, K97T
notes: HCDR3 wt (VH of C1.2G); also called antibody 77
B22: C1.2G-56 (antibody, human IgG4, V domains shown)
VH: B1 VH
VL: B1 VL with S93M, Q96I
notes: HCDR3 wt (VH of C1.2G); also called antibody 56
B23: C1.2G-870 (antibody, human IgG4, V domains shown)
VH: B1 VH
VL: B1 VL with Y92W, S93M, P95H, Q96K, K97I
notes: HCDR3 wt (VH of C1.2G); also called antibody 870
B24: C1.2G-94 (antibody, human IgG4, V domains shown)
VH: B1 VH
VL: B1 VL with Y92W, S93V, Q96A, K97W
notes: HCDR3 wt (VH of C1.2G); also called antibody 94
B25: C1.2G-802 (antibody, human IgG4, V domains shown)
VH: B1 VH
VL: B1 VL with Q89H, Q90F, Y92M, S93Q, Q96L, K97T
notes: HCDR3 wt (VH of C1.2G); also called antibody 802
B26: C1.2G-79 (antibody, human IgG4, V domains shown)
VH: B1 VH
VL: B1 VL with Q90V, Y92W, S93E, Q96L, K97T
notes: HCDR3 wt (VH of C1.2G); also called antibody 79
B27: C1.2G-95 (antibody, human IgG4, V domains shown)
VH: B1 VH
VL: B1 VL with Y92W, S93E, Q96L, K97V
notes: HCDR3 wt (VH of C1.2G); also called antibody 95
B28: C1.2G-97 (antibody, human IgG4, V domains shown)
VH: B1 VH
VL: B1 VL with Y92F, S93M, Q96L, K97Y
notes: HCDR3 wt (VH of C1.2G); also called antibody 97
B29: C1.2G-814 (antibody, human IgG4, V domains shown)
VH: B1 VH
VL: B1 VL with Q89S, Y92M, S93E, Q96L, K97T
notes: HCDR3 wt (VH of C1.2G); also called antibody 814
B30: C1.2G-75 (antibody, human IgG4, V domains shown)
VH: B1 VH
VL: B1 VL with Q89E, Q90E, Y92M, S93N, Q96L, K97T
notes: HCDR3 wt (VH of C1.2G); also called antibody 75
B31: C1.2G-63 (antibody, human IgG4, V domains shown)
VH: B1 VH
VL: B1 VL with Q89A, Q90N, Y92W, S93G, Q96L, K97T
notes: HCDR3 wt (VH of C1.2G); also called antibody 63
B32: C1.2G-852 (antibody, human IgG4, V domains shown)
VH: B1 VH with W104H, F105S, D106L, P107A
VL: B1 VL with Y94T, Q96L, K97T
notes: LCDR3 wt (VL of C1.2G); also called antibody 852

Target: T1, soluble hG-CSFR: amino acids 25-335 of …
Experiment: SPR (Biacore), mAb captured by anti-human IgG, soluble hG-CSFR injected
Method: Soluble hG-CSFR was injected for 5 minutes and dissociation was monitored for 30 minutes. Responses from a reference flow cell (in which mAb was not captured, but otherwise treated identically), were subtracted. The responses from a blank injection were then subtracted from the resultant sensorgrams.
The final corrected responses were fitted using non-linear regression to a model describing 1:1 kinetics, including a term for mass transport limitation. The Rmax value was fitted locally, to account for slight deviations in the level of mAb captured. Association rate (ka), dissociation rate (kd) and equilibrium dissociation constant (KD) were determined.

Kd	Binder
0.0733 nM	B1
0.356 nM	B2
0.25 nM	B3
0.167 nM	B4
0.0911 nM	B5
0.181 nM	B6
0.209 nM	B7
0.17 nM	B8
0.0446 nM	B9
0.144 nM	B10
0.23 nM	B11
0.336 nM	B12
0.0682 nM	B13
0.246 nM	B14
0.134 nM	B15
0.11 nM	B16

Kd	Binder
0.182 nM	B17
0.336 nM	B18
0.508 nM	B19
0.066 nM	B20
0.107 nM	B21
0.0993 nM	B22
0.367 nM	B23
0.189 nM	B24
0.111 nM	B25
0.0613 nM	B26
0.0578 nM	B27
0.0906 nM	B28
0.221 nM	B29
0.211 nM	B30
0.161 nM	B31
0.292 nM	B32

target: T2, human G-CSFR expressed on cells; experiment: cell-based or functional assay

IC50 (nM), inhibition of G-CSF-mediated proliferation of BaF3 cells	Binder
0.39 nM	B1
0.18 nM	B4
0.28 nM	B5
0.41 nM	B6
0.49 nM	B8
0.88 nM	B9
0.34 nM	B10
0.26 nM	B13
0.29 nM	B15
0.5 nM	B16
0.34 nM	B17
0.21 nM	B20
0.23 nM	B21
0.22 nM	B22
0.26 nM	B25
0.31 nM	B26
0.26 nM	B27
0.21 nM	B28
0.26 nM	B31
